This note sets out measurements from PMC3541234, “Functional Characterization of a Chimeric Soluble Fas Ligand Polymer with In Vivo Anti-Tumor Activity” (PLoS ONE, 2013).

Several values for one entry are separate records, joined by “and”; a condition that tells them apart may be missing. Equal values may be shown once.

By stoichiometry N is commonly meant the number of molecules, sites or subunits per partner or assembly. Usually Kd stands for the constant that tells how readily two partners part at equilibrium. As a reminder, the koff is a measure of how fast the partners let go of each other. By kon is commonly meant the rate constant with which the complex forms.

B4: Recombinant Fas-Fc (Fc fusion, UniProt P25445 26-173, looked up)
chain: QVTDINSKGLELRKTVTTVETQNLEGLHHDGQFCHKPCPPGERKARDCTVNGDEPDCVPCQEGKEYTDKAHFSSKCRRCRLCDEGHGLEVEINCTRTQNTKCRCKPNFFCNSTVCEHCDPCTKCEHGIIKECTLTSNTKCKEEGSRSN
notes: Fas (CD95/APO-1) part of a bought recombinant Fas-Fc; The reagents section also names a laboratory-made Fas-Fc purified on protein A; the SPR methods name the R&D Systems protein; source: bought: R&D Systems
B5: cleaved FasL (cFasL), spontaneously cleaved membrane FasL (ligand, human, UniProt P48023 127-281, looked up)
chain: LEKQIGHPSPPPEKKELRKVAHLTGKSNSRSMPLEWEDTYGIVLLSGVKYKKGGLVINETGLYFVYSKVYFRGQSCNNLPLSHKVYMRNSKYPQDLVMMEGKMMSYCTTGQMWARSSYLGAVFNLTSADHLYVNVSELSLVNFEESQTFFGLYKL
notes: human FasL, soluble product of the metalloprotease cleavage between amino acids 126 and 127; the C-terminal end 281 is the one printed for the extracellular domain; Homotrimer by gel filtration; also called sFasL; metalloprotease-cleaved FasL; source: COS cells transfected with wild-type FasL, supernatant (spontaneously cleaved by a metalloprotease); for SPR in serum-free medium, concentrated 100 …

Series [1] deals with the molecule itself. Nature of the series: SEC; gel filtration on Sephacryl S-200-HR and S-300-HR columns; concentrated COS supernatants, eluted in PBS at 0.3 ml/min; FasL in the fractions found by ELISA; size of the oligomer of the FasL construct. On the technique in general: In gel filtration, larger molecules generally elute earlier.
The series “Recombinant Fas-Fc” concerns the target B4. Nature of the series: SPR; BIAcore 3000; Fas-Fc covalently coupled to a CM5 flow cell (2,000 RU); FasL constructs as concentrated, dialysed COS supernatants flowed over (0.2-100 nM IgFasL, 0.2-44 nM cFasL, 0.2-37.5 nM D2FasL, 0.25-8 nM D1IgD2FasL) in Hepes-buffered saline, 30 ul/min; 5 min association, 11 min dissociation; BIAeval 4.1. To be noted: one partner purified. In general terms: Surface plasmon resonance follows binding to a sensor surface in real time, without labels.

The target of series [2] is B5. The series is described as above. The settings on record: one partner purified.

B1: D2FasL (D2 module of gp190 fused to the extracellular domain of hFasL) (ligand, UniProt P42702 329-542, looked up)
chain: AGYPPDTPQQLNCETHDLKEIICSWNPGRVTALVGPRATSYTLVESFSGKYVRLKRAEAPTNESYQLLFQMLPNQEIYNFTLNAHNPLGRSQSTILVNITEKVYPHTPTSFKVKDINSTAVKLSWHLPGNFAKINFLCEIEIKKSNSVQEQRNVTIKGVENSSYLVALDKLNPYTLYTFRIRCSTETFWKWSKWSNKKQHLTTEASPSKGPDTWQKELAELRESTSQMHTASSLEKQIGHPSPPPEKKELRKVAHLTGKSNSRSMPLEWEDTYGIVLLSGVKYKKGGLVINETGLYFVYSKVYFRGQSCNNLPLSHKVYMRNSKYPQDLVMMEGKMMSYCTTGQMWARSSYLGAVFNLTSADHLYVNVSELSLVNFEESQTFFGLYKL
notes: extracellular domain of human FasL (hFasL), amino acids 108 to 281; source: COS cells, transiently transfected (pED4 vector), supernatant; for SPR in Opti-MEM, concentrated 100 times, dialysed against PBS
For B1, in series [1], the “stoichiometry N” value came to 6. Also, in the series with Recombinant Fas-Fc, the Kd is 38.5 nM, the dissociation rate constant (koff) came to 0.006 s⁻¹ and the kon worked out at 160000 M⁻¹ s⁻¹.

B2: pFasL (polymeric soluble FasL; IgFasL chimera: Ig module of gp190 fused to the extracellular domain of hFasL) (ligand, UniProt P42702 246-328, looked up)
chain: WIPDSQTKVFPQDKVILVGSDITFCCVSQEKVLSALIGHTNCPLIHLDGENVAIKIRNISVSASSGTNVVFTTEDNIFGTVIFQKELAELRESTSQMHTASSLEKQIGHPSPPPEKKELRKVAHLTGKSNSRSMPLEWEDTYGIVLLSGVKYKKGGLVINETGLYFVYSKVYFRGQSCNNLPLSHKVYMRNSKYPQDLVMMEGKMMSYCTTGQMWARSSYLGAVFNLTSADHLYVNVSELSLVNFEESQTFFGLYKL
notes: Ig-like (Ig) module of the LIF receptor gp190, amino acids 246 to 328; extracellular domain of human FasL (hFasL), amino acids 108 to 281; source: COS cells, transiently transfected (pED4 vector), supernatant; for SPR in Opti-MEM, concentrated 100 times, dialysed against PBS; copies: 12
Take B2: the “stoichiometry N” value in series [1] was 12 and 6. Moreover, in the series with Recombinant Fas-Fc, the Kd is 11.6 nM, the koff was determined as 0.00041 s⁻¹ and the kon is 25000 M⁻¹ s⁻¹.

B3: D1IgD2FasL (D1IgD2 modules of gp190 fused to the extracellular domain of hFasL) (ligand, UniProt P42702 49-542, looked up)
chain: APHDLKCVTNNLQVWNCSWKAPSGTGRGTDYEVCIENRSRSCYQLEKTSIKIPALSHGDYEITINSLHDFGSSTSKFTLNEQNVSLIPDTPEILNLSADFSTSTLYLKWNDRGSVFPHRSNVIWEIKVLRKESMELVKLVTHNTTLNGKDTLHHWSWASDMPLECAIHFVEIRCYIDNLHFSGLEEWSDWSPVKNISWIPDSQTKVFPQDKVILVGSDITFCCVSQEKVLSALIGHTNCPLIHLDGENVAIKIRNISVSASSGTNVVFTTEDNIFGTVIFAGYPPDTPQQLNCETHDLKEIICSWNPGRVTALVGPRATSYTLVESFSGKYVRLKRAEAPTNESYQLLFQMLPNQEIYNFTLNAHNPLGRSQSTILVNITEKVYPHTPTSFKVKDINSTAVKLSWHLPGNFAKINFLCEIEIKKSNSVQEQRNVTIKGVENSSYLVALDKLNPYTLYTFRIRCSTETFWKWSKWSNKKQHLTTEASPSKGPDTWQKELAELRESTSQMHTASSLEKQIGHPSPPPEKKELRKVAHLTGKSNSRSMPLEWEDTYGIVLLSGVKYKKGGLVINETGLYFVYSKVYFRGQSCNNLPLSHKVYMRNSKYPQDLVMMEGKMMSYCTTGQMWARSSYLGAVFNLTSADHLYVNVSELSLVNFEESQTFFGLYKL
notes: as for B1
In the case of B3, the “stoichiometry N” value in series [1] was determined as 6. Besides, in the series with Recombinant Fas-Fc, the dissociation constant Kd stood at 25.6 nM, the koff came to 0.0033 s⁻¹ and the kon worked out at 130000 M⁻¹ s⁻¹.

For the molecule B4, in series [2], the Kd was found to be 69.4 nM, the koff is 0.0059 s⁻¹ and the on-rate constant (kon) was 84000 M⁻¹ s⁻¹.

Take B5: in series [1], the “stoichiometry N” value came out at 3.
